From the supplement of paper PMC11246515
± gives the standard deviation of the averaged measurements.

Assay: total protein half-life in vivo (active degradation + dilution); higher = more stable protein
[1] = E. coli NCM3722 delta-clpP delta-lon delta-hslV, growth: N-lim chemostat, doubling time 6 h
[2] = E. coli NCM3722 delta-clpP, growth: N-lim chemostat, doubling time 6 h
[3] = E. coli NCM3722 delta-hslV, growth: N-lim chemostat, doubling time 6 h
[4] = E. coli NCM3722 delta-lon, growth: N-lim chemostat, doubling time 6 h
[5] = E. coli NCM3722 delta-smpB, growth: N-lim chemostat, doubling time 6 h
[6] = wild type E. coli NCM3722, growth: C-lim chemostat, doubling time 3 h
[7] = wild type E. coli NCM3722, growth: C-lim chemostat, doubling time 6 h
[8] = wild type E. coli NCM3722, growth: C-lim chemostat, doubling time 12 h
[9] = wild type E. coli NCM3722, growth: N-lim chemostat, doubling time 6 h
[10] = wild type E. coli NCM3722, growth: N-lim chemostat, doubling time 12 h
[11] = wild type E. coli NCM3722, growth: P-lim chemostat, doubling time 6 h
[12] = wild type E. coli NCM3722, growth: P-lim chemostat, doubling time 12 h

Sequence	total protein half-life in vivo [1] [h]	total protein half-life in vivo [2] [h]	total protein half-life in vivo [3] [h]	total protein half-life in vivo [4] [h]	total protein half-life in vivo [5] [h]	total protein half-life in vivo [6] [h]	total protein half-life in vivo [7] [h]	total protein half-life in vivo [8] [h]	total protein half-life in vivo [9] [h]	total protein half-life in vivo [10] [h]	total protein half-life in vivo [11] [h]	total protein half-life in vivo [12] [h]
MSYTPMSDLGQQGLFDITRTLLQQPDLASLCEALSQLVKRSALADNAAIVLWQAQTQRASYYASREKDTPIKYEDETVLAHGPVRSILSRPDTLHCSYEEFCETWPQLDAGGLYPKFGHYCLMPLAAEGHIFGGCEFIRYDDRPWSEKEFNRLQTFTQIVSVVTEQIQSRVVNNVDYELLCRERDNFRILVAITNAVLSRLDMDELVSEVAKEIHYYFDIDDISIVLRSHRKNKLNIYSTHYLDKQHPAHEQSEVDEAGTLTERVFKSKEMLLINLHERDDLAPYERMLFDTWGNQIQTLCLLPLMSGDTMLGVLKLAQCEEKVFTTTNLNLLRQIAERVAIAVDNALAYQEIHRLKERLVDENLALTEQLNNVDSEFGEIIGRSEAMYSVLKQVEMVAQSDSTVLILGETGTGKELIARAIHNLSGRNNRRMVKMNCAAMPAGLLESDLFGHERGAFTGASAQRIGRFELADKSSLFLDEVGDMPLELQPKLLRVLQEQEFERLGSNKIIQTDVRLIAATNRDLKKMVADREFRSDLYYRLNVFPIHLPPLRERPEDIPLLAKAFTFKIARRLGRNIDSIPAETLRTLSNMEWPGNVRELENVIERAVLLTRGNVLQLSLPDIVLPEPETPPAATVVALEGEDEYQLIVRVLKETNGVVAGPKGAAQRLGLKRTTLLSRMKRLGIDKSALI	6.33 ± 0.39	4.33 ± 0.27	3.33 ± 0.097	5.42 ± 0.29	3.22 ± 0.57	2.4 ± 0.24	5.33 ± 1.1	7.11 ± 0.98	3.48 ± 0.2	8.1 ± 4.8	2.84	5.132 ± 0.02
MTAIAPVITIDGPSGAGKGTLCKAMAEALQWHLLDSGAIYRVLALAALHHHVDVASEDALVPLASHLDVRFVSTNGNLEVILEGEDVSGEIRTQEVANAASQVAAFPRVREALLRRQRAFRELPGLIADGRDMGTVVFPDAPVKIFLDASSEERAHRRMLQLQEKGFSVNFERLLAEIKERDDRDRNRAVAPLVPAADALVLDSTTLSIEQVIEKALQYARQKLALA [P0A6I0]	4.56 ± 0.24	4.93 ± 0.48	4.14 ± 0.16	4.79 ± 0.34	3.86 ± 0.083	3.05 ± 0.14	5.44 ± 0.4	9.23 ± 1.1	4.15 ± 0.046	6.34 ± 1.1	4.71 ± 0.26	9.34 ± 0.78
MTAKTAPKVTLWEFFQQLGKTFMLPVALLSFCGIMLGIGSSLSSHDVITLIPVLGNPVLQAIFTWMSKIGSFAFSFLPVMFCIAIPLGLARENKGVAAFAGFIGYAVMNLAVNFWLTNKGILPTTDAAVLKANNIQSILGIQSIDTGILGAVIAGIIVWMLHERFHNIRLPDALAFFGGTRFVPIISSLVMGLVGLVIPLVWPIFAMGISGLGHMINSAGDFGPMLFGTGERLLLPFGLHHILVALIRFTDAGGTQEVCGQTVSGALTIFQAQLSCPTTHGFSESATRFLSQGKMPAFLGGLPGAALAMYHCARPENRHKIKGLLISGLIACVVGGTTEPLEFLFLFVAPVLYVIHALLTGLGFTVMSVLGVTIGNTDGNIIDFVVFGILHGLSTKWYMVPVVAAIWFVVYYVIFRFAITRFNLKTPGRDSEVASSIEKAVAGAPGKSGYNVPAILEALGGADNIVSLDNCITRLRLSVKDMSLVNVQALKDNRAIGVVQLNQHNLQVVIGPQVQSVKDEMAGLMHTVQA						1.42 ± 0.085		2.5 ± 0.29				
MTDIAQLLGKDADNLLQHRCMTIPSDQLYLPGHDYVDRVMIDNNRPPAVLRNMQTLYNTGRLAGTGYLSILPVDQGVEHSAGASFAANPLYFDPKNIVELAIEAGCNCVASTYGVLASVSRRYAHRIPFLVKLNHNETLSYPNTYDQTLYASVEQAFNMGAVAVGATIYFGSEESRRQIEEISAAFERAHELGMVTVLWAYLRNSAFKKDGVDYHVSADLTGQANHLAATIGADIVKQKMAENNGGYKAINYGYTDDRVYSKLTSENPIDLVRYQLANCYMGRAGLINSGGAAGGETDLSDAVRTAVINKRAGGMGLILGRKAFKKSMADGVKLINAVQDVYLDSKITIA [P0A991]	6.08 ± 0.41	5.88 ± 0.5	6.17 ± 0.49	5.99 ± 0.7	5.21 ± 0.23	3.37 ± 0.44	6.705 ± 0.067	12.9 ± 0.75	5.51 ± 0.26	10.1 ± 0.44	6.06 ± 0.11	13.3 ± 0.99
MTDKTIAFSLLDLAPIPEGSSAREAFSHSLDLARLAEKRGYHRYWLAEHHNMTGIASAATSVLIGYLAANTTTLHLGSGGVMLPNHSPLVIAEQFGTLNTLYPGRIDLGLGRAPGSDQRTMMALRRHMSGDIDNFPRDVAELVDWFDARDPNPHVRPVPGYGEKIPVWLLGSSLYSAQLAAQLGLPFAFASHFAPDMLFQALHLYRSNFKPSARLEKPYAMVCINIIAADSNRDAEFLFTSMQQAFVKLRRGETGQLPPPIQNMDQFWSPSEQYGVQQALSMSLVGDKAKVRHGLQSILRETDADEIMVNGQIFDHQARLHSFELAMDVKEELLG [P0ADV5]	4.46 ± 0.36	4.24 ± 0.94	5.06 ± 1.8	3.94 ± 0.19	3.55 ± 0.21	3.07 ± 0.28			4.47 ± 1.3	5.76 ± 1.3	6.06 ± 0.55	11.1 ± 0.18
MTDKTSLSYKDAGVDIDAGNALVGRIKGVVKKTRRPEVMGGLGGFGALCALPQKYREPVLVSGTDGVGTKLRLAMDLKRHDTIGIDLVAMCVNDLVVQGAEPLFFLDYYATGKLDVDTASAVISGIAEGCLQSGCSLVGGETAEMPGMYHGEDYDVAGFCVGVVEKSEIIDGSKVSDGDVLIALGSSGPHSNGYSLVRKILEVSGCDPQTTELDGKPLADHLLAPTRIYVKSVLELIEKVDVHAIAHLTGGGFWENIPRVLPDNTQAVIDESSWQWPEVFNWLQTAGNVEHHEMYRTFNCGVGMIIALPAPEVDKALALLNANGENAWKIGIIKASDSEQRVVIE	4.99 ± 0.091	4.62 ± 1	4.47 ± 0.064	5.23 ± 0.1	4.258 ± 0.021	2.94 ± 0.24	5.66 ± 0.063	11.1 ± 0.42	4.53 ± 0.17	7.47 ± 0.71	4.7 ± 0.29	9.07 ± 2
MTDLHTDVERYLRYLSVERQLSPITLLNYQRQLEAIINFASENGLQSWQQCDVTMVRNFAVRSRRKGLGAASLALRLSALRSFFDWLVSQNELKANPAKGVSAPKAPRHLPKNIDVDDMNRLLDIDINDPLAVRDRAMLEVMYGAGLRLSELVGLDIKHLDLESGEVWVMGKGSKERRLPIGRNAVAWIEHWLDLRDLFGSEDDALFLSKLGKRISARNVQKRFAEWGIKQGLNNHVHPHKLRHSFATHMLESSGDLRGVQELLGHANLSTTQIYTHLDFQHLASVYDAAHPRAKRGK [P0A8P6]	4.56 ± 0.07	2.2684 ± 0.0015	1.38	2.36 ± 0.25	1.64 ± 0.28	1.59 ± 0.34	2.67		1.81	2.08 ± 0.12	1.87 ± 0.3	3.1 ± 0.58
MTDLSHSREKDKINPVVFYTSAGLILLFSLTTILFRDFSALWIGRTLDWVSKTFGWYYLLAATLYIVFVVCIACSRFGSVKLGPEQSKPEFSLLSWAAMLFAAGIGIDLMFFSVAEPVTQYMQPPEGAGQTIEAARQAMVWTLFHYGLTGWSMYALMGMALGYFSYRYNLPLTIRSALYPIFGKRINGPIGHSVDIAAVIGTIFGIATTLGIGVVQLNYGLSVLFDIPDSMAAKAALIALSVIIATISVTSGVDKGIRVLSELNVALALGLILFVLFMGDTSFLLNALVLNVGDYVNRFMGMTLNSFAFDRPVEWMNNWTLFFWAWWVAWSPFVGLFLARISRGRTIRQFVLGTLIIPFTFTLLWLSVFGNSALYEIIHGGAAFAEEAMVHPERGFYSLLAQYPAFTFSASVATITGLLFYVTSADSGALVLGNFTSQLKDINSDAPGWLRVFWSVAIGLLTLGMLMTNGISALQNTTVIMGLPFSFVIFFVMAGLYKSLKVEDYRRESANRDTAPRPLGLQDRLSWKKRLSRLMNYPGTRYTKQMMETVCYPAMEEVAQELRLRGAYVELKSLPPEEGQQLGHLDLLVHMGEEQNFVYQIWPQQYSVPGFTYRARSGKSTYYRLETFLLEGSQGNDLMDYSKEQVITDILDQYERHLNFIHLHREAPGHSVMFPDA [P0ABC9]	6.17 ± 0.24	7.418 ± 0.034	5.75 ± 1.3	> 8	5.11 ± 0.14		5.56	11.6 ± 2	6.17	9.97	6.22 ± 1.3	13.1 ± 1.3
MTDQAEKKHSAFWGVMVIAGTVIGGGMFALPVDLAGAWFFWGAFILIIAWFSMLHSGLLLLEANLNYPVGSSFNTITKDLIGNTWNIISGITVAFVLYILTYAYISANGAIISETISMNLGYHANPRIVGICTAIFVASVLWLSSLAASRITSLFLGLKIISFVIVFGSFFFQVDYSILRDATSSTAGTSYFPYIFMALPVCLASFGFHGNIPSLIICYGKRKDKLIKSVVFGSLLALVIYLFWLYCTMGNIPRESFKAIISSGGNVDSLVKSFLGTKQHGIIEFCLLVFSNLAVASSFFGVTLGLFDYLADLFKIDNSHGGRFKTVLLTFLPPALLYLIFPNGFIYGIGGAGLCATIWAVIIPAVLAIKARKKFPNQMFTVWGGNLIPAIVILFGITVILCWFGNVFNVLPKFG						3.24 ± 0.27	5.07 ± 1.3	11				
MTDSELMQLSEQVGQALKARGATVTTAESCTGGWVAKVITDIAGSSAWFERGFVTYSNEAKAQMIGVREETLAQHGAVSEPVVVEMAIGALKAARADYAVSISGIAGPDGGSEEKPVGTVWFAFATARGEGITRRECFSGDRDAVRRQATAYALQTLWQQFLQNT [P0A6G3]	6 ± 0.73		4.97 ± 0.2	5.11 ± 0.27	4.06 ± 0.093		5.59 ± 0.56	11 ± 1.9	4.67 ± 0.057	7.78 ± 0.54	5.897 ± 0.055	11.7 ± 0.88
MTEFTTLLQQGNAWFFIPSAILLGALHGLEPGHSKTMMAAFIIAIKGTIKQAVMLGLAATISHTAVVWLIAFGGMVISKRFTAQSAEPWLQLISAVIIISTAFWMFWRTWRGERNWLENMHGHDYEHHHHDHEHHHDHGHHHHHEHGEYQDAHARAHANDIKRRFDGREVTNWQILLFGLTGGLIPCPAAITVLLICIQLKALTLGATLVVSFSIGLALTLVTVGVGAAISVQQVAKRWSGFNTLAKRAPYFSSLLIGLVGVYMGVHGFMGIMR			4.77	4.13	5.43 ± 0.75	> 4	5.864 ± 0.02	10.8			5.97	11.6
MTEIQRLLTETIESLNTREKRDNKPRFSISFIRKHPGLFIGMYVAFFATLAVMLQSETLSGSVWLLVVLFILLNGFFFFDVYPRYRYEDIDVLDFRVCYNGEWYNTRFVPAALVEAILNSPRVADVHKEQLQKMIVRKGELSFYDIFTLARAESTS [P0AAS0]						0.508 ± 0.022	0.836		2.01		0.489	0.554
MTEIVADKTVEVVKNAIETADGALDLYNKYLDQVIPWQTFDETIKELSRFKQEYSQAASVLVGDIKTLLMDSQDKYFEATQTVYEWCGVATQLLAAYILLFDEYNEKKASAQKDILIKVLDDGITKLNEAQKSLLVSSQSFNNASGKLLALDSQLTNDFSEKSSYFQSQVDKIRKEAYAGAAAGVVAGPFGLIISYSIAAGVVEGKLIPELKNKLKSVQNFFTTLSNTVKQANKDIDAAKLKLTTEIAAIGEIKTETETTRFYVDYDDLMLSLLKEAAKKMINTCNEYQKRHGKKTLFEVPEV	4.51 ± 0.82	4.37 ± 0.14	3.54 ± 0.068	3.77 ± 0.13	2.84 ± 0.25	3.15 ± 0.65	4.71 ± 0.94	6.71 ± 1.1	3.2 ± 0.039	5.29 ± 0.62	4.11 ± 0.63	7.49 ± 0.36
